pKd: −log10 of the molar value. Blank lines part the entries; values can stand above or below the substance they belong to.
Key:
Ile83Glu anti-HER2 memAb = assay: SPR; memAb variant amine-coupled to a CM5 chip, peptide flowed over at 30 uL/min, HBS-EP+, 37 °C, Biacore T100, 1:1 binding model
[1] = molecular target: anti-HER2 memAb (trastuzumab-based, meditope-enabled anti-HER2 antibody); assay: SPR; memAb variant amine-coupled to a CM5 chip, peptide flowed over at 30 uL/min, HBS-EP+, 25 °C, Biacore T100, 1:1 binding model
long meditope ((Ac)…) = assay: SPR; conditions: 37 °C (red point beside label LE); n = 1; parent: est. 5.3; read off a plot
[2] = molecular target: memAb anti-HER2 (meditope-enabled, trastuzumab-based anti-HER2 antibody); assay: SPR; memAb anti-HER2 amine-coupled on a CM5 chip, meditope flowed over at 30 uL/min, HBS-EP+, 25 °C, 1:1 model, global fit, n=1 (authors estimate the error at 10-50%)
Chain of memAb anti-HER2 (meditope-enabled, trastuzumab-based anti-HER2 antibody) (heavy, as listed by the source, chain 1 of 2): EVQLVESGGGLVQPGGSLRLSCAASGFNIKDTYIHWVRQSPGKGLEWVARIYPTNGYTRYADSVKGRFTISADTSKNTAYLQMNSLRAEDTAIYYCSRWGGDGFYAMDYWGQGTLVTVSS
Chain of memAb anti-HER2 (meditope-enabled, trastuzumab-based anti-HER2 antibody) (light, as listed by the source, chain 2 of 2): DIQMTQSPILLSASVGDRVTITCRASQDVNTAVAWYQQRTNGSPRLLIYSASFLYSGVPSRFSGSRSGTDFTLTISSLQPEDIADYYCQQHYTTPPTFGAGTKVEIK

Chain of Ile83Glu anti-HER2 memAb (heavy, as listed by the source, chain 1 of 2): as the sequence (heavy, as listed by the source, chain 1 of 2) above
Chain of Ile83Glu anti-HER2 memAb (light, as listed by the source, chain 2 of 2): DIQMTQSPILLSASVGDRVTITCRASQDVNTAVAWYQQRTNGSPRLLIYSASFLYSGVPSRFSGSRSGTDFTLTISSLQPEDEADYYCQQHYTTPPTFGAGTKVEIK
Chain of anti-HER2 memAb (trastuzumab-based, meditope-enabled anti-HER2 antibody) (heavy, as listed by the source, chain 1 of 2): as the sequence (heavy, as listed by the source, chain 1 of 2) above

pKd (Ile83Glu anti-HER2 memAb): 8.68
half-life (Ile83Glu anti-HER2 memAb): 1.38 h
Substance: 5-diphenylalanine-8-Arg-(PEG)2-azido-meditope ((Ac)CQFDA(Ph)2STRXLRCGGSK, X = arginine-(PEG)2-azide) (peptide)

pKd [1]: 7.40
Substance: meditope with Leu5 substituted by L-diphenylalanine (peptide)

kon (log10(M-1 s-1)) (long meditope ((Ac)…)): 5.6
Substance: anti-HER2 memAb (trastuzumab-based, meditope-enabled anti-HER2 antibody) LC:Ile83Glu

koff [2]: 0.008 s⁻¹
kon [2]: 200000 M⁻¹ s⁻¹
Substance: CQFDA(Ph)2STRRLKC meditope (peptide)

From PMC5910394, “Mechanically interlocked functionalization of monoclonal antibodies” (Nature Communications, 2018)
